For three substances, Kd, EC50 and response results are on record in publication PMC3689669.

The target in assay [1] is GST-HK10_(544–563), GST fusion of the human K10 C-terminal tail region (UniProt P13645). Description: SPR; BIAcore X, 25°C; GST-HK10(544–563) (500 nM) captured on immobilised goat anti-GST IgG, GST alone on the reference cell; SpsD passed over in increasing concentrations, 5 µl/min; KD from equilibrium response.
For assay [2], the target named is Canine fibrinogen (canine) (UniProt P68213). Description: SPR; BIAcore X, 25°C; ligand covalently immobilised on CM5 chip; SpsD passed over in increasing concentrations without regeneration, 5 µl/min, PBS with 0.005% Tween 20; KD from equilibrium response against concentration.
For assay [3], the target named is Human fibrinogen (human) (UniProt P02671). Described as above.
Assay [4] concerns the target Human plasma fibronectin (human). The assay is described as above.
The target in assay [5] is α-elastin, a heterogeneous mixture of soluble peptides obtained from human lung (human). Described as above.
Assay [6] has as its target GST-Fbgγ_(395–411), GST fusion of the human Fbg γ-chain sequence (human) (UniProt P02679). The assay can be described thus: ELISA; GST-Fbg γ chain or GST coated on microtiter wells; increasing concentrations of SpsD167–519; detected with anti-6-His IgG.
Assay [7] concerns the target Mouse cytokeratin 10 (residues 1–570) (mouse) (UniProt P02535). Description: ELISA; mouse K10 proteins, GST-HK10(544–563) or GST coated on wells; increasing concentrations of SpsD167–519; detected with anti-SpsD37–519 IgG.
Assay [8] has as its target Mouse cytokeratin 10 C-terminal tail region (MK10_(454–570)) (mouse) (UniProt P02535). The assay is described as above.
Assay [9] deals with N-terminal fragment of fibronectin (N29) containing the five N-terminal type I modules (human). The assay can be described thus: ELISA; Fn (1 µg/well) and Fn fragments (250 ng/well) coated; SpsD167–519 in solution, detected with anti-SpsD37–519 antibody; FnBPB163–480 as control, detected with anti-FnBPB163–480 IgG.
In assay [10] the target is Recombinant fibronectin fragment, residues 1266–1908 (extra domain B plus type III modules 8–13 and the initial region of module 14) (UniProt P02751). The description is as above.
Assay [11] deals with GST-HK10_(544–563), GST fusion of the human K10 C-terminal tail region (UniProt P13645). The assay can be described thus: ELISA. The following applies: value read at the highest concentration, 20 µM protein added; immobilized K10 (panel title GST-HK10 544-563) coated in bicarbonate buffer overnight; parent: est. 1.2; read off a plot.
Assay [12] addresses Human fibrinogen, P02671-2;P02675;P02679-2. The assay can be described thus: ELISA. Particulars: value read at the highest concentration, 16 µM protein added; immobilized human Fbg coated in bicarbonate buffer overnight; parent: est. 1.5; read off a plot.
The target in assay [13] is Human plasma fibronectin. The assay can be described thus: ELISA. Particulars: value read at the highest concentration, 20 µM protein added; immobilized Fn coated in bicarbonate buffer overnight; parent: est. 1.7; read off a plot.
Assay [14] concerns the target α-elastin, a heterogeneous mixture of soluble peptides obtained from human lung. The assay can be described thus: ELISA. The following applies: value read at the highest concentration, 20 µM protein added; immobilized α-elastin coated in bicarbonate buffer overnight; parent: est. 1.8; read off a plot.

GST-HK10_(544–563), GST fusion of the human K10 C-terminal tail region, sequence (P13645 544-563): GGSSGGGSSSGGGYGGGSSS
Human fibrinogen (human), sequence (P02671 other isoform, or with tags, fused parts or gaps, chain 1 of 3): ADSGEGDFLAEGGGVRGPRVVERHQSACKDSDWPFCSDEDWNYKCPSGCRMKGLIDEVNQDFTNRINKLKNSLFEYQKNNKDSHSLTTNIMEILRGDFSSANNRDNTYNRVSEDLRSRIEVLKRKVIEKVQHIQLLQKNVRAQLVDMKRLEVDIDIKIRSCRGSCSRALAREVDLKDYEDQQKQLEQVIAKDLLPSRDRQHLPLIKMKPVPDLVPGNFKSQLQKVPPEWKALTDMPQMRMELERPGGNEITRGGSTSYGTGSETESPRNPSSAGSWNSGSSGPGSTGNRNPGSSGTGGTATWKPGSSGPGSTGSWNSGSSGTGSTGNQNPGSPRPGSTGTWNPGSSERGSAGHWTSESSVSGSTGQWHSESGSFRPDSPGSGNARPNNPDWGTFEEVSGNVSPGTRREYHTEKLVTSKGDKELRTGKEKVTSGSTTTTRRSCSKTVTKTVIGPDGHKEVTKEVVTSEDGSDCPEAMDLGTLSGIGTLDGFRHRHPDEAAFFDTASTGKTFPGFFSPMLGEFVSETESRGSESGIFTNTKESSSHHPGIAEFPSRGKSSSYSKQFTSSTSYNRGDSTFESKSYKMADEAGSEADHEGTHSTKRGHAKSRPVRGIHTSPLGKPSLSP
Human fibrinogen (human), sequence (P02675 31-491, chain 2 of 3, further chain): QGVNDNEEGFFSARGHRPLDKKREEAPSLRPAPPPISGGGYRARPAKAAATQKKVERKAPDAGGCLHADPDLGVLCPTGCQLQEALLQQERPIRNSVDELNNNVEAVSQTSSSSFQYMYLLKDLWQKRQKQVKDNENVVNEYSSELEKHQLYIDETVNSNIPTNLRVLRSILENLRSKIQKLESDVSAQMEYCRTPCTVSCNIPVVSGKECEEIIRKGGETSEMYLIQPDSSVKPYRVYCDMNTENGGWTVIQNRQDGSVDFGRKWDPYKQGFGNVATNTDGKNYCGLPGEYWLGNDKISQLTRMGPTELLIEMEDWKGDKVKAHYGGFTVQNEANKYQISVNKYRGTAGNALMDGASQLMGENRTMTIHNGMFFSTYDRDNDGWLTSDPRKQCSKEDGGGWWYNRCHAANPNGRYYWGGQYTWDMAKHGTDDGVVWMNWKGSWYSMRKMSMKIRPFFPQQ
Human fibrinogen (human), sequence (P02679 other isoform, or with tags, fused parts or gaps, chain 3 of 3, further chain): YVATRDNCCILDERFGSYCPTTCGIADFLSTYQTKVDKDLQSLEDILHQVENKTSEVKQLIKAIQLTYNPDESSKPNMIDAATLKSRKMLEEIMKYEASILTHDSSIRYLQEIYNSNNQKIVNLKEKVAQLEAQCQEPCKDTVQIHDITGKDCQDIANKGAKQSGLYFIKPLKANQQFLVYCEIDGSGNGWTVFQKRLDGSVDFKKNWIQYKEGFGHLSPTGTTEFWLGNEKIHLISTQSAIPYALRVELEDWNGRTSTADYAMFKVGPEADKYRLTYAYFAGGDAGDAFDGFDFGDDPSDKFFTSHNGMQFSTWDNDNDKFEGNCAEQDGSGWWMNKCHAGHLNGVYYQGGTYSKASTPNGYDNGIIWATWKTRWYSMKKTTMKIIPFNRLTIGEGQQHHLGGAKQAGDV
Mouse cytokeratin 10 C-terminal tail region (MK10_(454–570)) (mouse), sequence (P02535 454-570): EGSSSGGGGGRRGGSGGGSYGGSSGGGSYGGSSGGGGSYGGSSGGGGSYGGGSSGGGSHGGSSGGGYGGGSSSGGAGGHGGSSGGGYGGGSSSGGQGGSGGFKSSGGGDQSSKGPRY
Mouse cytokeratin 10 (residues 1–570) (mouse), sequence (P02535 whole entry, the tested form may be a part): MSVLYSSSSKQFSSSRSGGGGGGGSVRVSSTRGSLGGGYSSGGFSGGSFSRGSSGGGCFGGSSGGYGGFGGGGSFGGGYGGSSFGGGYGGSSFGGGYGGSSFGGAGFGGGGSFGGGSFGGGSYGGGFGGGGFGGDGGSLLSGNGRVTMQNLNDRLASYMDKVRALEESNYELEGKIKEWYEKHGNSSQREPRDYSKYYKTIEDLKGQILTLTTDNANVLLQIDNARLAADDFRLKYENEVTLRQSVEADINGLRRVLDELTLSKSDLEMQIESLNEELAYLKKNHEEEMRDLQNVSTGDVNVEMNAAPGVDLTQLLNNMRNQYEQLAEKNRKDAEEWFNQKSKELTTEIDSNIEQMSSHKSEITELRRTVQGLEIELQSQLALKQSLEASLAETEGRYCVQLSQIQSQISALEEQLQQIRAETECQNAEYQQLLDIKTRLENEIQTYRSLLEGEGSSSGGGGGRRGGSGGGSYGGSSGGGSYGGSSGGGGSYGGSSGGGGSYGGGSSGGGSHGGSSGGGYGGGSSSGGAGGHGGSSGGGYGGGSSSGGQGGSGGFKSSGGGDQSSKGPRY
Recombinant fibronectin fragment, residues 1266–1908 (extra domain B plus type III modules 8–13 and the initial region of module 14), sequence (P02751 1266-1908): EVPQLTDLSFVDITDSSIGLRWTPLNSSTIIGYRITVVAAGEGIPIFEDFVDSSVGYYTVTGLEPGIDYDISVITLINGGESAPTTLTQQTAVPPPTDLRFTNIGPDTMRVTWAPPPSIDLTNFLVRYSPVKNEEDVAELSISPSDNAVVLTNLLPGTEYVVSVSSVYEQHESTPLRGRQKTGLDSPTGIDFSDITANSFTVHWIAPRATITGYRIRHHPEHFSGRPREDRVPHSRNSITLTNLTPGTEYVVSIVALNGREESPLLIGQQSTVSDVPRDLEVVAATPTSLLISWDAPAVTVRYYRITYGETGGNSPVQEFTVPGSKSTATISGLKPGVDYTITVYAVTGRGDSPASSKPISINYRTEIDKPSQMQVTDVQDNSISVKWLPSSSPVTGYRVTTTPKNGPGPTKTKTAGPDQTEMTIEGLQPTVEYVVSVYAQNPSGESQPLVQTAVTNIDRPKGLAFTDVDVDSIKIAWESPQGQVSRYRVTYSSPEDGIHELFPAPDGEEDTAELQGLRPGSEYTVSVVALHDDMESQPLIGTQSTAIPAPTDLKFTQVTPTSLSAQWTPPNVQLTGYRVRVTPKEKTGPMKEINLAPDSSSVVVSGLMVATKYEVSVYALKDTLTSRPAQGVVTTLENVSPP

On to “SpsD_(37–519), A domain (N1N2N3 region) of SpsD from S. pseudintermedius strain 326 (domain or fragment)”, for which the Kd stood at 906 nM in assay [1]; 367 nM in [2]; 380 nM in [3]; 2350 nM in [4]; 1200 nM in assay [5].

Take “SpsD_(167–519), N2N3 subdomains of the A domain of SpsD from S. pseudintermedius strain 326 (domain or fragment)”: the EC50 in assay [6] was determined as 320 nM; in assay [7], 1020 nM; in [8], 1200 nM; in [9], 2210 nM; in assay [10] it was 1970 nM. In addition, the dissociation constant Kd was 840 nM in assay [1]; 341 nM in assay [2]; 360 nM in assay [3]; 2160 nM in [4]; 1020 nM in assay [5].

Regarding “SpsD_(167–519), N2N3 subdomains of the A domain of SpsD from S. pseudintermedius strain 326 F288A”, the response amounted to 0.97 A490 in [11], 0.11 A490 in assay [12], 1.6 A490 in [13] and 0.67 A490 in [14].
